Patent publication CN117990904A

Molecular target: A型FMDV毒株
Experiment: cell-based or functional assay

B1: A型口蹄疫病毒中和抗体Ab1 (VHH)
VHH: QVQLQESGGGLVQAGGSLRLSCVYSGFTFGHYSMGWYRQAPGKEREFVAAIRRSDGSTDYADSTVKGRFTISRDNAKKTVYLQMNSLKPEDTAVYYCATVRRVATLSGSSSWGQGTQVTVSS
Q: With B1 as the binder, how does the Neu 50 (病毒中和试验) read?
A: 1.2 µmol/L
